Data on four molecules can be found in PMC12412469 (2025).

Assay [1] concerns the target T1, Recombinant Human VEGF165 (human, UniProt P15692-4 1-191).
T1 chain: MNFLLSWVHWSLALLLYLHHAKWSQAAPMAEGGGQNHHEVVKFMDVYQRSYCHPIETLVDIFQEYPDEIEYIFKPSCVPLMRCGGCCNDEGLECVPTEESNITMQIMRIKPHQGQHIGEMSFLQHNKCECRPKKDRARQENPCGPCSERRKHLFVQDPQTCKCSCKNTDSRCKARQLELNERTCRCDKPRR

The target in assay [2] is T1, Recombinant Human VEGF165. In words: SPR.
The target in assay [3] is T1, Recombinant Human VEGF165. In words: SPR; rhVEGF165 amine-coupled to a CM5 chip; designs injected (multi-cycle kinetics, 60 s injection, 60 s dissociation); PBS with 0.05% Tween-20; 25 °C; 10 µL/min; 1:1 binding assumed, linearization method. In general terms: SPR reads the build-up and loss of mass on a sensor chip optically.
Assay [4] addresses T2, Biotinylated Recombinant Human IL-7R alpha/CD127 Fc Chimera Avi-tag (human, UniProt P16871 21-239, biotin (biotinylated Avi-tag)).
T2 chain: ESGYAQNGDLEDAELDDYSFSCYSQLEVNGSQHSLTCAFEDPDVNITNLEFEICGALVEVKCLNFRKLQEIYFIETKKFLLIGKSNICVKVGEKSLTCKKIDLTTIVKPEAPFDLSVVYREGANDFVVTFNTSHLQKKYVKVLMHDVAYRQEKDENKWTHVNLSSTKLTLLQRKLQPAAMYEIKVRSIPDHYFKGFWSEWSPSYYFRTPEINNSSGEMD
In words: SPR.

One may read the koff as the first-order rate constant of dissociation. Broadly, the Kd is the free concentration of one partner at which half of the binding sites on the other are occupied at equilibrium, for simple one-to-one binding.

B1: Sam0.7 (designed binder)
chain: LPTAEEVQKLMARYIELMDVGDIEAIVQMYADDATVEAPFGAPPIHGRERIAYFYRRMLGGGIARATLTGPVRASHNGTGAMPFRVEYVFNGQPFAMDVRVEMRFDEHGRIQTMQAYWDWVNLSVREP
Take B1: the proliferation of the VEGF-sensitive leukemia cell line U937 (CellTiter-Blue, 72 h), 1 to 100 µg/mL of the binder, percent of untreated control in assay [1] was 50%. Moreover, the koff in assay [2] is 0.0309 s⁻¹. Besides, the Kd in assay [3] turned out to be 190 nM.

B2: 5NLC scaffold (unmutated template) (other)
chain: MAQIAERLASLRSQLPPSVQLIAVSKNHPAAAIREAYAAGQRHFGENRVQEAIAKQAELTDLPDLTWHLLGKLQSNKARKAVEHFDWIHSVDSWALAERLDRIAGELGRSPKLCLQVKLLPDPNKAGWDPADLRAELPQLSQLQQVQIRGLMVIAPLGLTAAETQALFAQARTFAAELQQQAPQLRLTELSMGMSSDWPLAVAEGATWIRVGTQLFGPRSL
Regarding B2, the koff in assay [4] amounted to 0.375 s⁻¹.

B3: Sima3.2 (designed binder)
chain: STNISPKQGLDKAKYFSGKWYLTHVLIKDPKIVSQFCASFTPRESDGTVKIAVYLYLAIKKTSDYAIGEGKLESSGLQYTATSKVVDKKKAVLKELDERHSYTVTVLEADDSSALTHITVREGSKDYGDYYLVLTHQKDAEPSAKVKSAVTQAGLQLSQFVGTKDLGCQYDDQFTSL
Turning to B3, the other in assay [1] was found to be 50%. Moreover, in assay [2], the dissociation constant (Kd) worked out at 14 nM and the koff worked out at 0.0006 s⁻¹.

B4: 6YUD scaffold (unmutated template) (other)
chain: MKFAVIDRKNFTLIHFEIEKPIKPEILKEIEIPSVDTRKGVVISGRGPIWLHCFLAHKYAHTPFVAVYDPRLGAVVVQSHSELREGDVIDVVVEEILKGGVRHV
For the molecule B4, the koff in assay [4] was 0.0821 s⁻¹.
